According to patent US20240325499A1, “FGF21 COMPOUND / GLP-1R AGONIST COMBINATIONS WITH OPTIMIZED ACTIVITY RATIO” (SANOFI, priority 2018, published 2024):

What was measured:
human FGFR1c and KLB [1] = molecular target: T1, human FGFR1c and KLB (Homo sapiens, UniProt P11362+Q86Z14); test: In-Cell Western FGF21 receptor autophosphorylation (pFGFR ICW) in CHO cells; assay type: cell-based; conditions: CHO cells overexpressing human FGFR1c and KLB; 5 min stimulus; n = 59
T1 construct: host or cells: CHO Flp-In cells
Method: (§1) The cellular in vitro efficacy of mature human FGF21 (SEQ ID NO: 2) or FGF21 variants was measured using a specific and highly sensitive In-Cell Western (ICW) assay. The ICW assay is an immunocytochemical assay usually performed in microplate format. CHO Flp-In cells (Invitrogen, Darmstadt, Germany) stably expressing the human FGFR1c (=FGF receptor 1c isoform) together with human beta-Klotho (KLB) were used for an FGF21 receptor autophosphorylation assay using In-Cell Western (Aguilar H. N. et al. (2010) PLoS ONE 5(4): e9965). In order to determine the receptor autophosphorylation level or downstream activation of the MAP kinase ERK1/2, 2×10^4 cells/well were seeded into 96-well plates and grown for 48 h. Cells were serum starved with serum-free medium Ham's F-12 Nutrient Mix with GlutaMAX (Gibco, Darmstadt, Germany) for 3-4 h. The cells were subsequently treated with increasing concentrations of either mature human FGF21 (SEQ ID NO: 2) for 5 min at 37° C. After incubation, the medium was discarded, and the cells were fixed in 3.7% freshly prepared para-formaldehyde for 20 min. […] Subsequently, cells were washed again with PBS plus 0.1% Tween20, and infrared dye signals were quantified with an Odyssey imager (LICOR, Bad Homburg, Germany). Results were normalized by quantification of DNA with TO-PRO3 dye (Invitrogen, Karlsruhe, Germany). […]

human FGFR1c and KLB [2] = molecular target: T1, human FGFR1c and KLB; test: In-Cell Western ERK1/2 phosphorylation (pERK ICW) in CHO cells; assay type: cell-based; conditions: CHO cells overexpressing human FGFR1c and KLB; 5 min stimulus; n = 61
Method: as §1

EC50 (human FGFR1c and KLB [1]): 4.8 ± 0.23 nM | EC50 (human FGFR1c and KLB [2]): 0.18 ± 0.02 nM
B1: mature human wild-type FGF21, FGF21(His29-Ser209) (protein, listed as Homo sapiens)
chain: HPIPDSSPLLQFGGQVRQRYLYTDDAQQTEAHLEIREDGTVGGAADQSPESLLQLKALKPGVIQILGVKTSRFLCQRPDGALYGSLHFDPEACSFRELLLEDGYNVYQSEAHGLPLHLPGNKSPHRDPAPRGPARFLPLPGLPPAPPEPPGILAPQPPDVGSSDPLSMVGPSQGRSPSYAS
